Legend:
[1] = tested on: HAP1 4KO cells (ΔDGAT1ΔDGAT2ΔDIESLΔTMX1); test: Shotgun lipidomics of HAP1 4KO cells reconstituted with WT or H130A DIESL; format: cell-based, human; conditions: HAP1 4KO cells expressing active (WT) or catalytic-inactive (H130A) DIESL; FIG. 4B
Protocol: HAP1 4KO (ΔDGAT1ΔDGAT2ΔDIESLΔTMX1) cells, reconstituted with WT or H130A DIESL, were cultured in complete medium. Prior to collection, cells were cultured in serum-free IMDM for thirty minutes. Cells were then collected by trypsinization, washed twice with PBS and three million cells (in triplicate) were pelleted and stored at −80° C. For E. coli samples, 2 ml of induced culture (as described above, in triplicate) was pelleted and incubated overnight at −80° C. The following day, bacterial pellets were thawed and incubated in 25 μg/ml lysozyme in PBS for 30 minutes. Cells were pelleted, washed in PBS, and then pelleted again before resuspension in distilled water. Cells were sonicated at 60% amplitude for 5 minutes, in continuous 5-second on/25-second off cycles. The insoluble fraction was pelleted by centrifugation and the lysate (supernatant) was quantified for protein and stored at −80° C. […]
Samples were analyzed by direct infusion on a QExactive mass spectrometer (Thermo Scientific) equipped with a TriVersa NanoMate ion source (Advion Biosciences). Samples were analyzed in both positive and negative ion modes with a resolution of Rm/z=200=280000 for MS and Rm/z=200=17500 for MSMS experiments, in a single acquisition. […]
Data were analyzed by Lipotype GmbH with in-house developed lipid identification software based on LipidXplorer (41, 42). […]

[2] = tested on: E. coli; test: Recombinant expression of DIESL in E. coli, TAG by TLC and mass spectrometry; format: cell-based; conditions: human DIESL preceded by a bacterial membrane targeting sequence, FIG. 4F
Protocol: E. coli BL21 were transformed with pET24 or pET28a plasmids expressing the indicated construct. Single clones were cultured up to a 5 ml volume in LB broth at OD 0.5 at 37° C. Cultures were then transferred to 25° C. for one hour, and then expression was induced with 0.2 mM IPTG for 16h. For SDS-PAGE and immunoblot analysis, 100 ul of culture was pelleted for 5 minutes at 3,500 g before lysis in SDS-PAGE sample buffer.
Equivalent numbers of human cells grown to confluence in 6-well plates were first washed with PBS. Cells were then incubated twice in 400 μl extraction buffer (3:2 hexane:isopropanol) for 10 minutes (35). E. coli cell pellets from 2 ml of overnight culture were incubated in 500 μl extraction buffer (only once) for 30 minutes while rotating. Extractions were pooled and dried under nitrogen stream, to a volume of ˜10 μl, and then spotted on silica gel 60 TLC plates (Sigma-Aldrich). Plates were placed in a TLC tank containing a mobile phase to separate neutral lipids (80:20:1 hexane:diethyl ether:acetic acid) or polar lipids (60:50:4:1 chloroform:methanol:water:acetic acid). […] After drying, NBD fluorescence was monitored on a Universal Hood GelDoc system (Bio-Rad) using the fluorescein channel. […] (shaking at 850 rpm) for the indicated time (final [14C] DAG concentration, 50 μM; total radioactivity per assay, 0.14 μCi). […]

B1: active DIESL: DIESL polypeptide (human transmembrane protein 68, SEQ ID NO: 1) with triacylglycerol synthase activity (protein, listed as Homo sapiens)
chain: MIDKNQTCGVGQDSVPYMICLIHILEEWFGVEQLEDYLNFANYLLWVFTPLILLILPYFTIFLLYLTIIFLHIYKRKNVLKEAYSHNLWDGARKTVATLWDGHAAVWHGYEVHGMEKIPEDGPALIIFYHGAIPIDFYYFMAKIFIHKGRTCRVVADHFVFKIPGFSLLLDVFCALHGPREKCVEILRSGHLLAISPGGVREALISDETYNIVWGHRRGFAQVAIDAKVPIIPMFTQNIREGFRSLGGTRLFRWLYEKFRYPFAPMYGGFPVKLRTYLGDPIPYDPQITAEELAEKTKNAVQALIDKHQRIPGNIMSALLERFH
TAG abundance as share of the lipidome [1]: 20.5 % of the lipidome
TAG synthesis in E. coli [2]: induced de novo TAG synthesis
